# Reference: article PMC5965843, “Structural study reveals the temperature-dependent conformational flexibility of Tk-PTP, a protein tyrosine phosphatase from Thermococcus kodakaraensis KOD1” (PLoS ONE, 2018)
# How the values were obtained:
# [1] = test system: Cc1cc(=O)oc2c(F)c(OP(=O)(O)O)c(F)cc12; test: purified protein; details: 60°C (active form II), pH 5.0 sodium citrate, 200 mM NaCl, 5 mM dithiothreitol
# [2] = target: T1, Tk-PTP (Thermococcus kodakarensis, UniProt Q8X270); test: X-ray crystal structure, […] Å; assay type: binding; details: active site (P-loop); protein heated at 60°C for 3 h with sodium vanadate at 1:3 molar ratio
# T1 construct: recombinant, E. coli BL21(DE3) RIL; codon-optimized gene; wild type in pET28a, N-terminal His6-tag removed by thrombin; mutants in pET21a, Ni-NTA purified; P-loop HC93MGGLGR99
Molecule,Km [1] [µM],kcat [1] [s⁻¹],"X-ray crystal structure, 1.8 Å [2]"
Tk-PTP (Thermococcus kodakarensis KOD1; D63A),27.4 ± 10.6,1.29 ± 0.047,–
Tk-PTP (Thermococcus kodakarensis KOD1),276,30.0,–
Tk-PTP (Thermococcus kodakarensis KOD1; R124E),258 ± 43,0.188 ± 0.052,–
Tk-PTP (Thermococcus kodakarensis KOD1; E132A),23 ± 8.4,3.83 ± 0.14,–
[O]=[V]([OH])([OH])[OH] [vanadate],–,–,Vanadate is anchored in the active site of Tk-PTP(form II)
Tk-PTP (Thermococcus kodakarensis KOD1; G95A),106 ± 10,35.8 ± 0.7,–
Tk-PTP (Thermococcus kodakarensis KOD1; E132L),251 ± 423,2.97 ± 0.15,–
Tk-PTP (Thermococcus kodakarensis KOD1; E132Q),150 ± 62,8.82 ± 0.13,–
Tk-PTP (Thermococcus kodakarensis KOD1; D63N),252 ± 50,2.92 ± 0.15,–
Tk-PTP (Thermococcus kodakarensis KOD1; Q136A),135 ± 16,0.460 ± 0.015,–
Tk-PTP (Thermococcus kodakarensis KOD1; R124A),301 ± 109,1.59 ± 0.65,–
